Experimental findings from patent US20020076795A1, “Novel TRF1 binding protein, methods of use thereof” (published 2002) are described below.

In data set [1] the target is T1, human full length TRF1 fused to LexA (LexA-TRF1) (human, UniProt P0A7C2 1-202; P54274 2-439).
T1 construct: The construct comes from Bianchi et al. 1997; also called LexA-FL
T1 sequence (looked up): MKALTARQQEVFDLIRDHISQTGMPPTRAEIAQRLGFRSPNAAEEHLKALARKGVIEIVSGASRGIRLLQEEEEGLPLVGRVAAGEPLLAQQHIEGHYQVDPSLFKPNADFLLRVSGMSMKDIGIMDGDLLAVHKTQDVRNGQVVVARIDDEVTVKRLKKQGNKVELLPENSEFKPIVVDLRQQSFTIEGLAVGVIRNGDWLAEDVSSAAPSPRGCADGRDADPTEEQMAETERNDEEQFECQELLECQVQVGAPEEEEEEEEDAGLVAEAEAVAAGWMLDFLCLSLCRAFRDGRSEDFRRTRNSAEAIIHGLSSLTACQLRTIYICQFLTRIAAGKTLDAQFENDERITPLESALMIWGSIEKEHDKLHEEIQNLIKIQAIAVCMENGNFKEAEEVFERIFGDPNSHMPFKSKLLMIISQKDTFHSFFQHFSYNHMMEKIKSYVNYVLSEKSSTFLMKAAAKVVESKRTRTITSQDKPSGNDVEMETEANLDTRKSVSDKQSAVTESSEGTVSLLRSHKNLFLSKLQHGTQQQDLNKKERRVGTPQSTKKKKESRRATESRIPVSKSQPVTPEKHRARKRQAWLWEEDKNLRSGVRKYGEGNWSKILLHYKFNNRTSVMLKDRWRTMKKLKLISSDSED
Put plainly: yeast two-hybrid, β-galactosidase; GAD without tankyrase sequences. The method, then: TR1L-4 and TR1L-12 were isolated from a human liver two-hybrid cDNA library (Clontech) created in pGad10. The library was screened with human full length TRF1 cDNA fused to LexA (LexA-TRF1) [Bianchi et al., EMBO J., 16:1785-1794 (1997)] in the yeast strain L40 as described [Hollenberg et al., Mol. Cell Biol., 15:3813-3822 (1995)]. Two-hybrid analysis was performed as described by Bianchi et al. [EMBO J., 16:1785-1794 (1997)]. β-galactosidase assays for the two-hybrid analysis was performed as described by Bianchi et al. [EMBO J., 16:1785-1794 (1997)].
Two-hybrid analysis was used to determine the interacting domains between tankyrase and TRF1. […] To determine the tankyrase-interacting domain in TRF1, two-hybrid analysis was performed with the 10-ANK repeat domain of TR1L-12 fused to the GAL4 activation domain (GAD-tankyrase) and full-length and deletion constructs of TRF1 fused to LexA. […] As observed previously, the amino-terminal acidic domain of TFR1 (LexAd68-C) activated transcription even in the absence of tankyrase sequences in the GAD fusion partner. […] Deletion of the acidic domain of TRF1 (ΔN66-LexA) abolished the interaction with GAD-tankyrase.

A further data set has as its target TRF1 (hTRF1) (Homo sapiens, UniProt P54274 P54274:2-439). Put plainly: EMSA; 13-120 ng TRF1 per 20 ul, 1 ng probe, 20 mM Hepes-KOH pH 7.9, 100 mM KCl, 100 ng sheared E. coli DNA, room temperature; slight nonspecific stimulation by tankyrase without NAD+. As to conditions: tags: baculovirus-derived (Bianchi et al. 1997); chain copies: 2 (homodimer, stated; several dimers per probe at high concentration); label: end-labeled. The method, then: Biol. 12:4834 (1992)] containing 12 tandem TTAGGG repeats. Baculovirus-derived TRF1 (13 to 120 ng) [Bianchi et al. EMBO J. 16:1785 (1997)] was incubated for 30 minutes at room temperature in a 20 μl reaction containing 20 mM Hepes-KOH (pH 7.9), 100 mM KCL, 0.5 mM DTT, 5% glycerol, 0.1% NP40, 100 ng sheared E. coli DNA, 100 ng β-casein, and 1 ng of labeled probe. In some cases, reactions were supplemented with NAD⁺ (0.2 mM) and baculovirus-derived human tankyrase (2.5 to 200 ng). Samples were fractionated on a 0.7% agarose gel run in 0.1× TBE (8.9 mM Tris-base, 8.9 mM Boric acid, and 0.2 mM EDTA) at 130 volts for 1 hour at room temperature. Gels were dried onto Whatman DE81 paper and autoradiographed.

B1: GAL4 activation domain (GAD) (alone) (other, UniProt P04386 768-881, looked up)
chain: ANFNQSGNIADSSLSFTFTNSSNGPNLITTQTNSQALSQPIASSNVHDNFMNNEITASKIDDGNNSKPLSPGWTDQTAYNAFGITTGMFNTTTMDDVYNYLFDDEDTPPNPKKE
notes: Control
In the case of B1, the binding result in data set [1] is given as “no binding”.

B2: [TTAGGG]12 duplex, 142 bp HindIII-Asp718 fragment of pTH12 (dsDNA)
DNA 1: TTAGGGTTAGGGTTAGGGTTAGGGTTAGGGTTAGGGTTAGGGTTAGGGTTAGGGTTAGGGTTAGGGTTAGGG
DNA 2: CCCTAACCCTAACCCTAACCCTAACCCTAACCCTAACCCTAACCCTAACCCTAACCCTAACCCTAACCCTAA
Turning to B2, the binding result in the data set with TRF1 (hTRF1) is “binds”.
